Experimental findings from US20050100540A1, “Platelet-activating factor acetylhydrolase” (priority 1993, published 2005) are described below.

A short description of the test: PAF-AH activity of E. coli constructs with extended amino termini (lysate, media). Format: biochemical. Particulars: trp promoter. On the procedure: PAF-AH activity in transfectant supernatants was determined by the method of Stafforini et al. (1990), supra, with the following modifications. Briefly, PAF-AH activity was determined by measuring the hydrolysis of ^3H-acetate from [acetyl-^3H) PAF (New England Nuclear, Boston, Mass.). The aqueous free ^3H-acetate was separated from labeled substrate by reversed-phase column chromatography over octadecylsilica gel cartridges (Baker Research Products, Phillipsburg, Pa.). Assays were carried out using 10 μl transfectant supernatant in 0.1M Hepes buffer, pH 7.2, in a reaction volume of 50 μl. A total of 50 pmoles of substrate were used per reaction with a ratio of 1:5 labeled: cold PAF. Reactions were incubated for 30 minutes at 37° C. and stopped by the addition of 40 μl of 10M acetic acid. The solution was then washed through the octadecylsilica gel cartridges which were then rinsed with 0.1M sodium acetate. The aqueous eluate from each sample was collected and counted in a liquid scintillation counter for one minute. Enzyme activity was expressed in counts per minute.
and encompassed the termination codon of sAH 406-3 and contained an EcoRV cloning site. PCR reactions were performed essentially as described in Example 3. The resulting PCR product was digested with XbaI and EcoRV and subcloned into a pBR322 vector containing the Trp promoter [deBoer et al., PNAS. 80:21-25 (1983)] immediately upstream of the cloning site. E. coli strain XL-1 Blue was transformed with the expression construct and cultured in L broth containing 100 μg/ml of carbenicillin. Transformants from overnight cultures were pelleted and resuspended in lysis buffer containing 50 mM Tris-HCl pH 7.5, 50 mM NaCl, 10 mM CHAPS, 1 mM EDTA, 100 μg/ml lysozyme, and 0.05 trypsin-inhibiting units (TIU)/ml Aprotinin. Following a 1 hour incubation on ice and sonication for 2 minutes, the lysates were assayed for PAF-AH activity by the method described in Example 4. E. coli transformed with the expression construct (designated trp AH) generated a product with PAF-AH activity.
Several E. coli expression constructs were also evaluated which produce PAF-AH with extended amino termini. The N-terminus of natural plasma PAF-AH was identified as Ile42 by amino acid sequencing (Example 2). […] Acids Res., 14:4683-4690 (1986)]. Presumably a more classical signal sequence (M1-A17) is recognized by the cellular secretion system, followed by endoproteolytic cleavage. The entire coding sequence for PAF-AH beginning at the initiating methionine (nucleotides 162 to 1487 of SEQ ID NO: 7) was engineered for expression in E. coli using the trp promoter. […] Another expression construct, beginning at Val18 (nucleotides 213 to-1487 of SEQ ID NO: 7), produced active PAF-AH at about one third the level of the original construct.

B1: PAF-AH: Recombinant human plasma platelet-activating factor acetylhydrolase (beginning at Ile42) expressed in E. coli from construct pUC trp AH (protein)
chain: IQVLMAAASFGQTKIPRGNGPYSVGCTDLMFDHTNKGTFLRLYYPSQDNDRLDTLWIPNKEYFWGLSKFLGTHWLMGNILRLLFGSMTTPANWNSPLRPGEKYPLVVFSHGLGAFRTLYSAIGIDLASHGFIVAAVEHRDRSASATYYFKDQSAAEIGDKSWLYLRTLKQEEETHIRNEQVRQRAKECSQALSLILDIDHGKPVKNALDLKFDMEQLKDSIDREKIAVIGHSFGGATVIQTLSEDQRFRCGIALDAWMFPLGDEVYSRIPQPLFFINSEYFQYPANIIKMKKCYSPDKERKMITIRGSVHQNFADFTFATGKIIGHMLKLKGDIDSNVAIDLSNKASLAFLQKHLGLHKDFDQWDCLIEGDDENLIPGTNINTTNQHIMLQNSSGIEKYN
Turning to B1, the “PAF-AH activity, Lysate” value (E. coli lysate) amounted to 177.7 U/ml/OD600. Also, the “PAF-AH activity, Media” value (E. coli media) worked out at 0.030 U/ml/OD600.
